Here are results for 18 molecules from US8936925B2, “Reconstitution of 5-enolpyruvylshikimate-3-phosphate synthase activity by fragment complementation” (priority 2004, dated 2015).

The chains are these.
B1: C86: E. coli EPSPS C-terminal fragment, residue 86 to C-terminus (protein, UniProt P0A6D3 86-427, looked up, fragment)
chain: GALELFLGNAGTAMRPLAAALCLGSNDIVLTGEPRMKERPIGHLVDALRLGGAKITYLEQENYPPLRLQGGFTGGNVDVDGSVSSQFLTALLMTAPLAPEDTVIRIKGDLVSKPYIDITLNLMKTFGVEIENQHYQQFVVKGGQSYQSPGTYLVEGDASSASYFLAAAAIKGGTVKVTGIGRNSMQGDIRFADVLEKMGATICWGDDYISCTRGELNAIDMDMNHIPDAAMTIATAALFAKGTTTLRNIYNWRVKETDRLFAMATELRKVGAEVEEGHDYIRITPPEKLNFAEIATYNDHRMAMCFSLVALSDTPVTILDPKCTAKTFPDYFEQLARISQAA
B2: C219: E. coli EPSPS C-terminal fragment, residue 219 to C-terminus (protein, UniProt P0A6D3 219-427, looked up, fragment)
chain: HYQQFVVKGGQSYQSPGTYLVEGDASSASYFLAAAAIKGGTVKVTGIGRNSMQGDIRFADVLEKMGATICWGDDYISCTRGELNAIDMDMNHIPDAAMTIATAALFAKGTTTLRNIYNWRVKETDRLFAMATELRKVGAEVEEGHDYIRITPPEKLNFAEIATYNDHRMAMCFSLVALSDTPVTILDPKCTAKTFPDYFEQLARISQAA
B3: C185: E. coli EPSPS C-terminal fragment, residue 185 to C-terminus (protein, UniProt P0A6D3 185-427, looked up, fragment)
chain: EDTVIRIKGDLVSKPYIDITLNLMKTFGVEIENQHYQQFVVKGGQSYQSPGTYLVEGDASSASYFLAAAAIKGGTVKVTGIGRNSMQGDIRFADVLEKMGATICWGDDYISCTRGELNAIDMDMNHIPDAAMTIATAALFAKGTTTLRNIYNWRVKETDRLFAMATELRKVGAEVEEGHDYIRITPPEKLNFAEIATYNDHRMAMCFSLVALSDTPVTILDPKCTAKTFPDYFEQLARISQAA
B4: C155: E. coli EPSPS C-terminal fragment, residue 155 to C-terminus (protein, UniProt P0A6D3 155-427, looked up, fragment)
chain: GGFTGGNVDVDGSVSSQFLTALLMTAPLAPEDTVIRIKGDLVSKPYIDITLNLMKTFGVEIENQHYQQFVVKGGQSYQSPGTYLVEGDASSASYFLAAAAIKGGTVKVTGIGRNSMQGDIRFADVLEKMGATICWGDDYISCTRGELNAIDMDMNHIPDAAMTIATAALFAKGTTTLRNIYNWRVKETDRLFAMATELRKVGAEVEEGHDYIRITPPEKLNFAEIATYNDHRMAMCFSLVALSDTPVTILDPKCTAKTFPDYFEQLARISQAA
B5: C166: E. coli EPSPS C-terminal fragment, residue 166 to C-terminus (protein, UniProt P0A6D3 166-427, looked up, fragment)
chain: GSVSSQFLTALLMTAPLAPEDTVIRIKGDLVSKPYIDITLNLMKTFGVEIENQHYQQFVVKGGQSYQSPGTYLVEGDASSASYFLAAAAIKGGTVKVTGIGRNSMQGDIRFADVLEKMGATICWGDDYISCTRGELNAIDMDMNHIPDAAMTIATAALFAKGTTTLRNIYNWRVKETDRLFAMATELRKVGAEVEEGHDYIRITPPEKLNFAEIATYNDHRMAMCFSLVALSDTPVTILDPKCTAKTFPDYFEQLARISQAA
B6: C183: E. coli EPSPS C-terminal fragment, residue 183 to C-terminus (protein, UniProt P0A6D3 183-427, looked up, fragment)
chain: APEDTVIRIKGDLVSKPYIDITLNLMKTFGVEIENQHYQQFVVKGGQSYQSPGTYLVEGDASSASYFLAAAAIKGGTVKVTGIGRNSMQGDIRFADVLEKMGATICWGDDYISCTRGELNAIDMDMNHIPDAAMTIATAALFAKGTTTLRNIYNWRVKETDRLFAMATELRKVGAEVEEGHDYIRITPPEKLNFAEIATYNDHRMAMCFSLVALSDTPVTILDPKCTAKTFPDYFEQLARISQAA
B7: C105: E. coli EPSPS C-terminal fragment, residue 105 to C-terminus (protein, UniProt P0A6D3 105-427, looked up, fragment)
chain: ALCLGSNDIVLTGEPRMKERPIGHLVDALRLGGAKITYLEQENYPPLRLQGGFTGGNVDVDGSVSSQFLTALLMTAPLAPEDTVIRIKGDLVSKPYIDITLNLMKTFGVEIENQHYQQFVVKGGQSYQSPGTYLVEGDASSASYFLAAAAIKGGTVKVTGIGRNSMQGDIRFADVLEKMGATICWGDDYISCTRGELNAIDMDMNHIPDAAMTIATAALFAKGTTTLRNIYNWRVKETDRLFAMATELRKVGAEVEEGHDYIRITPPEKLNFAEIATYNDHRMAMCFSLVALSDTPVTILDPKCTAKTFPDYFEQLARISQAA
B8: N218: E. coli EPSPS N-terminal fragment, N-terminus to residue 218 (protein, UniProt P0A6D3 1-218, looked up, fragment)
chain: MESLTLQPIARVDGTINLPGSKSVSNRALLLAALAHGKTVLTNLLDSDDVRHMLNALTALGVSYTLSADRTRCEIIGNGGPLHAEGALELFLGNAGTAMRPLAAALCLGSNDIVLTGEPRMKERPIGHLVDALRLGGAKITYLEQENYPPLRLQGGFTGGNVDVDGSVSSQFLTALLMTAPLAPEDTVIRIKGDLVSKPYIDITLNLMKTFGVEIENQ
B9: N85: E. coli EPSPS N-terminal fragment, N-terminus to residue 85 (protein, UniProt P0A6D3 1-85, looked up, fragment)
chain: MESLTLQPIARVDGTINLPGSKSVSNRALLLAALAHGKTVLTNLLDSDDVRHMLNALTALGVSYTLSADRTRCEIIGNGGPLHAE
B10: N154: E. coli EPSPS N-terminal fragment, N-terminus to residue 154 (protein, UniProt P0A6D3 1-154, looked up, fragment)
chain: MESLTLQPIARVDGTINLPGSKSVSNRALLLAALAHGKTVLTNLLDSDDVRHMLNALTALGVSYTLSADRTRCEIIGNGGPLHAEGALELFLGNAGTAMRPLAAALCLGSNDIVLTGEPRMKERPIGHLVDALRLGGAKITYLEQENYPPLRLQ
B11: N182: E. coli EPSPS N-terminal fragment, N-terminus to residue 182 (protein, UniProt P0A6D3 1-182, looked up, fragment)
chain: MESLTLQPIARVDGTINLPGSKSVSNRALLLAALAHGKTVLTNLLDSDDVRHMLNALTALGVSYTLSADRTRCEIIGNGGPLHAEGALELFLGNAGTAMRPLAAALCLGSNDIVLTGEPRMKERPIGHLVDALRLGGAKITYLEQENYPPLRLQGGFTGGNVDVDGSVSSQFLTALLMTAPL
B12: N165: E. coli EPSPS N-terminal fragment, N-terminus to residue 165 (protein, UniProt P0A6D3 1-165, looked up, fragment)
chain: MESLTLQPIARVDGTINLPGSKSVSNRALLLAALAHGKTVLTNLLDSDDVRHMLNALTALGVSYTLSADRTRCEIIGNGGPLHAEGALELFLGNAGTAMRPLAAALCLGSNDIVLTGEPRMKERPIGHLVDALRLGGAKITYLEQENYPPLRLQGGFTGGNVDVD
B13: N104: E. coli EPSPS N-terminal fragment, N-terminus to residue 104 (protein, UniProt P0A6D3 1-104, looked up, fragment)
chain: MESLTLQPIARVDGTINLPGSKSVSNRALLLAALAHGKTVLTNLLDSDDVRHMLNALTALGVSYTLSADRTRCEIIGNGGPLHAEGALELFLGNAGTAMRPLAA
B14: N184: E. coli EPSPS N-terminal fragment, N-terminus to residue 184 (protein, UniProt P0A6D3 1-184, looked up, fragment)
chain: MESLTLQPIARVDGTINLPGSKSVSNRALLLAALAHGKTVLTNLLDSDDVRHMLNALTALGVSYTLSADRTRCEIIGNGGPLHAEGALELFLGNAGTAMRPLAAALCLGSNDIVLTGEPRMKERPIGHLVDALRLGGAKITYLEQENYPPLRLQGGFTGGNVDVDGSVSSQFLTALLMTAPLAP

The subject of one assay is aroA gene-mutant E. coli strain AB2829. Briefly: In vivo complementation: growth on solid M63 restrictive medium. The arrangement: key: −: failed to grow; +: able to grow. The assay is classed as cell-based. The note with it: C-terminal fragment alone. From the text: The pKU2100 plasmid constructed as described above and corresponding pACYC1184 plasmid were introduced separately or together into the strain AB2829 deficient in E. coli aroA gene. Then, the strain was streaked on solid M63 restrictive medium and cultured overnight to determine the growth.
In order to test if EPSPS achieves fragment complementation after in vivo expression, genes encoding EPSPS N-terminal peptides were constructed into pACYC184, and genes encoding EPSPS C-terminal peptides were constructed into pBR322 (see the section Materials and Methods for the detailed construction method). Afterwards, these plasmids were introduced into aroA gene-mutant E. coli strain AB2829. EPSPS activity of the protein fragments encoded by these genes was determined by the growth of the strains on M63 restrictive medium.
The pACYC184 and pBR322 plasmids are able to be expressed in the same bacterial cell since they have replicons p15A and ColE1 respectively. In this regard, a pACYC184 plasmid was co-introduced into aroA gene-mutant E. coli strain AB2829 together with a corresponding pKU2100 plasmid, wherein the N-terminal peptide encoded by the pACYC184 plasmid and C-terminal peptide encoded by the pKU2100 plasmid are the two fragments divided at the same site from EPSPS. The resulting strains are streaked on M63 restrictive medium, and cultured at 37° C.
The pBR322 plasmids constructed in section 3.5 a and their relevant pACYC1184 plasmids constructed in section 3.5 b were introduced respectively or together into E. coli strain AB2829 deficient in aroA gene. Then the strains were streaked on solid M63 restrictive medium and cultured overnight to test the growth.
“C384: E. coli EPSPS C-terminal fragment, residue 384 to C-terminus (DHRMAMCFSLVALSDTPVTILDPKCTAKTFPDYFEQLARISQAA; UniProt P0A6D3 384-427, looked up, fragment)”: the “complementation condition, C-terminal” value is “−”. As to “C372: E. coli EPSPS C-terminal fragment, residue 372 to C-terminus (EKLNFAEIATYNDHRMAMCFSLVALSDTPVTILDPKCTAKTFPDYFEQLARISQAA; UniProt P0A6D3 372-427, looked up, fragment)”, the “complementation condition, C-terminal” value was “−”. Turning to “C377: E. coli EPSPS C-terminal fragment, residue 377 to C-terminus (AEIATYNDHRMAMCFSLVALSDTPVTILDPKCTAKTFPDYFEQLARISQAA; UniProt P0A6D3 377-427, looked up, fragment)”, the “complementation condition, C-terminal” value is listed as “−”.

For B1, the “complementation condition, C-terminal” value is reported as “−”. Turning to B2, the “complementation condition, C-terminal” value is given as “−”. Consider B3, for which the “complementation condition, C-terminal” value is recorded as “−”. In the case of B4, the “complementation condition, C-terminal” value is “−”. For the molecule B5, the “complementation condition, C-terminal” value was “−”. On the same count and under the same terms, the result for B6 reads “−”. Regarding B7, the “complementation condition, C-terminal” value is given as “−”.

The assay is the same for the next values; noted with them: N-terminal fragment alone.
“N31: E. coli EPSPS N-terminal fragment, N-terminus to residue 31 (MESLTLQPIARVDGTINLPGSKSVSNRALLL; UniProt P0A6D3 1-31, looked up, fragment)”: the “complementation condition, N-terminal” value is listed as “−”. On the same count and under the same terms, the result for B8 reads “−”; that for B9, “−”. Still for that read-out and setting: the result for B10 reads “−”; that for B11, “−”; that for B12, “−”. B13: the “complementation condition, N-terminal” value is “−”. On the same count and under the same terms, the result for B14 reads “−”.
